The assay deals with hFc-hROR1 (fusion protein of the extracellular domain of human ROR1 and the Fc domain of human IgG1) (human, UniProt P01857 99-330 = IgG part). In words: SPR.
hFc-hROR1 (fusion protein of the extracellular domain of human ROR1 and the Fc domain of human IgG1), sequence (P01857 other isoform, or with tags, fused parts or gaps): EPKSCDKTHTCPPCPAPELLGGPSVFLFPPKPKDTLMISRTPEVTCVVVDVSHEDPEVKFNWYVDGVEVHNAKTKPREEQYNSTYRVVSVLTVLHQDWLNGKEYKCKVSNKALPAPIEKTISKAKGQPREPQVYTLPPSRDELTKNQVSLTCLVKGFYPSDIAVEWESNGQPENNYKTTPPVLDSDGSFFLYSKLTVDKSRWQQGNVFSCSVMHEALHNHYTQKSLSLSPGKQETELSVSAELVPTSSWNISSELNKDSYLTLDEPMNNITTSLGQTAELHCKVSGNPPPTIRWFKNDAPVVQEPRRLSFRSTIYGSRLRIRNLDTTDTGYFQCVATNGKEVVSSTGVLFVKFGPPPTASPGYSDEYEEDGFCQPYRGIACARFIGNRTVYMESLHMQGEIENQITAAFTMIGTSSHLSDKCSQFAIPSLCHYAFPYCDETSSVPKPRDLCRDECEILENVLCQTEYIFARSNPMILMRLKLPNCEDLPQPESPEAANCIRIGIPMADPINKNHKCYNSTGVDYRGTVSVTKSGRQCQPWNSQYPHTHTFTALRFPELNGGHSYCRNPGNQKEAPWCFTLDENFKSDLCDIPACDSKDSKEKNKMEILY

B1: ERR1-403 chimeric rabbit/human Fab (Fab, V domains shown)
VH: QEQLKESGRGLVQPGGSLKLSCKASGFDFSGWYMTWVRQAPGKGLEWIGTIGTTKGRTYYASWVNGRFTISSDNAQNTVDLQMNSLTAADRATYFCVRGSDYFDLWGPGTLVTISS
VL: SYELTQLPSVSVSLGQTARITCGGNSIGSKAVNWYQQKPGLAPGLLIYDDDERPSGVPARFSGSNSGDTATLTISGAQAGDEADYYCQLWDSSAGAYVFGGGTQLTVTG
In the case of B1, the affinity, expressed as Kd, was 0.0416 µM.

B2: ERR1-TOP43 chimeric rabbit/human Fab (Fab, V domains shown)
VH: QSLEESGGRLVTPGTPLTLTCTVSGFSLSSYWMSWVRQAPGKGLEWIGAIYGSGNTYYASWAKGRFTISKTSTTVDLKITSPTTEDTATYFCARDVHSTATDLWGPGTLVTISS
VL: SYELTQLPSVSVSLGQTARITCGGNNIGSKAVNWYQQKPGLAPGLLIYNDDERPSGVPDRFSGSNSGDTATLTISGAQAGDEADYYCQLWDSSAGAYVFGGGTQLTVTG
The molecule B2 came in with a Kd of 0.00111 µM.

B3: ERR1-301 chimeric rabbit/human Fab (Fab, V domains shown)
VH: QEQLEESGGGLVTPGGSLTLTCTASGFTISTYHMSWVRQAPGKGLEWIGSIYAGSGSTYYASWVNGRFTISSNTTQNTVSLQMNSLTVADTATYFCARDHPSYGMDLWGPGTLVTVSS
VL: SYELTQLPSVSVSLGQTARITCGGNSIGSKAVNWYQQKPGLAPGLLIYDDDERPSGVPDRFSASNSGDTATLTISGAQAEDEADYYCQLWDSSAVAYVFGGGTQLTVTG
In turn, B3 had a dissociation constant (Kd) of 0.118 µM.

B4: XBR1-402 chimeric rabbit/human Fab (Fab, V domains shown)
VH: QEQQKESGGGLFKPTDTLTLTCTASGFDISSYYMSWVRQAPGNGLEWIGAIGISGNAYYASWAKSRSTITRNTNLNTVTLKMTSLTAADTATYFCARDHPTYGMDLWGPGTLVTVSS
VL: SYELTQLPSVSVSLGQTARITCEGNNIGSKAVHWYQQKPGLAPGLLIYDDDERPSGVPDRFSGSNSGDTATLTISGAQAGDEADYYCQVWDSSAYVFGGGTQLTVTG
In turn, B4 had a Kd of 0.00581 µM. This Kd is about 20-fold lower than that of the molecule before.
